Series [1] deals with T1, HYH.2-His (HYH splice isoform 2) (Arabidopsis thaliana, UniProt Q8W191 1-149).
T1 sequence: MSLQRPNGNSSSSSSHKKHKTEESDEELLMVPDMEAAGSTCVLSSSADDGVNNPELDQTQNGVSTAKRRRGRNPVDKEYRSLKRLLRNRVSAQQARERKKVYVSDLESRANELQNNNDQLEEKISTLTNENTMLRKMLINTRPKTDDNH
As to the kind of experiment: competition; 100x, 400x, 1600x molar excess over labeled N1; gradual decrease of shift; EMSA: LightShift Chemiluminescent EMSA Kit (manufacturer's instructions), 100 ng HYH.2-His, room temperature 30 min, 8% native polyacrylamide gel; buffer, salt. The settings on record: protein: recombinant; tags: His (pET28a+); chain copies: 2; label: none; blunt.

Series [2] deals with T1, HYH.2-His (HYH splice isoform 2). As to the kind of experiment: EMSA; 100 ng protein; EMSA: LightShift Chemiluminescent EMSA Kit (manufacturer's instructions), 100 ng HYH.2-His, room temperature 30 min, 8% native polyacrylamide gel; buffer, salt. The settings on record: protein: recombinant; tags: His (pET28a+); chain copies: 2; label: 5'-biotin; blunt.

Here are results for three molecules from PMC5725467, “Elongated Hypocotyl 5-Homolog (HYH) Negatively Regulates Expression of the Ambient Temperature-Responsive MicroRNA Gene MIR169”.

B1: miR169a G-box-like, unlabeled competitor (dsDNA)
DNA 1: TGTACGGCCACGCAAAAGTGACCTAC
DNA 2: GTAGGTCACTTTTGCGTGGCCGTACA
For B1, in series [1], the binding result is on record as “binds”.

B2: miR169a NC1 (dsDNA)
DNA 1: ATCTTCTGTTTAACAACATATG
DNA 2: CATATGTTGTTAAACAGAAGAT
Regarding B2, in series [2], the binding result was “no binding”.

B3: miR169a G-box-like (G) (dsDNA)
DNA 1: TGTACGGCCACGCAAAAGTGACCTAC
DNA 2: GTAGGTCACTTTTGCGTGGCCGTACA
As for B3, the binding result in series [2] is given as “binds”.
